The chains are these.
B1: CPEB3 Ribozyme (parent)
chain: GGGGGCCACAGCAGAAGCGUUCACGUCGCGGCCCCUGUCAGAUUCUGGUGAAUCUGCGAAUUCUGCUGU

In the data set the parent is B1. Nature of the data set: self-cleavage, relative activity (ratio to wild type); higher = more cleavage; co-transcriptional.
For the variant GGGGGCCUCAGCAGAAGCGUUCACUUCGCGGCCCCUGUCAGAUUCUGGUGAAUCUGCGAAUUCUGCUGU [A8U G25U], the self-cleavage is 0.0965. The value for GGGGGCCAAAGCAGAAGCGUUCCCGUCGCGGCCCCUGUCAGAUUCUGGUGAAUCUGCGAAUUCUGCUGU [C9A A23C] was 1.01. As for GGGGGCCAAAGCAGAAGCGUUCACGUCGCGGCCCCUGUCAGAUUCUGGUGAAUCUGCGAAUUCUGCUGU [C9A], the figure is 1.03. The value for GGGGGCCAAAGCAGAAGCGUUCACGUCGCGGCCCCUGUCAGAUUCUGGUGAAUCUGCGAAUUCUGUUGU [C9A C66U] was 1.02. In the case of GGGGGCCAAAGCAGUAGCGUUCACGUCGCGGCCCCUGUCAGAUUCUGGUGAAUCUGCGAAUUCUGCUGU [C9A A15U], the self-cleavage was determined as 0.886.

Turning to GGGGGCCAAAGCAGCAGCGUUCACGUCGCGGCCCCUGUCAGAUUCUGGUGAAUCUGCGAAUUCUGCUGU [C9A A15C], the self-cleavage was 0.931. As for GGGGGCCAAAGCAGAAGCGUUGACGUCGCGGCCCCUGUCAGAUUCUGGUGAAUCUGCGAAUUCUGCUGU [C9A C22G], the figure is 0.181; as for GGGGGCCAAAGCAGAAGCGUUAACGUCGCGGCCCCUGUCAGAUUCUGGUGAAUCUGCGAAUUCUGCUGU [C9A C22A], 0.251. Take GGGGGCCAAAGCAGAAGCGUUUACGUCGCGGCCCCUGUCAGAUUCUGGUGAAUCUGCGAAUUCUGCUGU [C9A C22U]: the self-cleavage was found to be 0.424. The value for GGGGGCCUCAGCAGAAGCGUUCACGUCGCGGCCCCUGUCAAAUUCUGGUGAAUCUGCGAAUUCUGCUGU [A8U G41A] was 0.789. With GGGGGCCAAAGCCGAAGCGUUCACGUCGCGGCCCCUGUCAGAUUCUGGUGAAUCUGCGAAUUCUGCUGU [C9A A13C], the self-cleavage stood at 0.965. As for GGGGGCCAAAGCAGAAGCGUUCACGUCGCGGCCCCUGUCAUAUUCUGGUGAAUCUGCGAAUUCUGCUGU [C9A G41U], the figure is 0.955; as for GGGGGCCUCAGCAGAAGCGUUCACGUCGCGGCCCCUGUCAGAUUCUGGUGAAUCUGCGAAUUCUGCUGG [A8U U69G], 1.06. As to GGGGGCCAAAGCAGAAGCGUUCACGUCGAGGCCCCUGUCAGAUUCUGGUGAAUCUGCGAAUUCUGCUGU [C9A C29A], the self-cleavage came to 0.86. With GGGGGCCAAAGCAGAAGCGUUCACGUCGUGGCCCCUGUCAGAUUCUGGUGAAUCUGCGAAUUCUGCUGU [C9A C29U], the self-cleavage was 0.992. The value for GGGGGCCUCAGCAGAAGCGUUCACGUCGCGGCCCCUGUCAGAUUCUGGUGAAUCUGCGAAUUCGGCUGU [A8U U64G] was 0.87; that for GGGGGCCUCAGCAGAAGCGUUCACGUCGCGGCCCCUGUCAGAUUCUGGUGAAUCUGCGAAUUCCGCUGU [A8U U64C] was 0.953. The value for GGGGGCCUCAGCAGAAGCGUUCACGUCGCGGCCCCUGUCAGAUACUGGUGAAUCUGCGAAUUCUGCUGU [A8U U44A] was 0.97. As for GGGGGCCUCAGCAGAAGCGUUCACGUCGCGGCCCCGGUCAGAUUCUGGUGAAUCUGCGAAUUCUGCUGU [A8U U36G], the figure is 0.163; as for GGGGGCCAAAGCAUAAGCGUUCACGUCGCGGCCCCUGUCAGAUUCUGGUGAAUCUGCGAAUUCUGCUGU [C9A G14U], 0.767; as for GGGGGCCAAAGCAAAAGCGUUCACGUCGCGGCCCCUGUCAGAUUCUGGUGAAUCUGCGAAUUCUGCUGU [C9A G14A], 0.725. With GGGGGCCUCAGCAGAAGCGUUCACGUCGCGGCCCCUGUCAGAUUCUGGUGAAUCAGCGAAUUCUGCUGU [A8U U55A], the self-cleavage is 0.967. As for GGGGGCCAAGGCAGAAGCGUUCACGUCGCGGCCCCUGUCAGAUUCUGGUGAAUCUGCGAAUUCUGCUGU [C9A A10G], the figure is 1.01; as for GGGGGCCAACGCAGAAGCGUUCACGUCGCGGCCCCUGUCAGAUUCUGGUGAAUCUGCGAAUUCUGCUGU [C9A A10C], 1.02; as for GGGGGCCAAAGCAGAAGCGUUCACGUCGCGGCCCCUUUCAGAUUCUGGUGAAUCUGCGAAUUCUGCUGU [C9A G37U], 0.401.

As for GGGGGCCUCAGCACAAGCGUUCACGUCGCGGCCCCUGUCAGAUUCUGGUGAAUCUGCGAAUUCUGCUGU [A8U G14C], the self-cleavage was found to be 0.593. As for GGGGGCCAAAGCAGAAGCGUUCACGUCGCGGCCCCUGUCAGAUUCUGAUGAAUCUGCGAAUUCUGCUGU [C9A G48A], the figure is 1.01; as for GGGGGCCAAAGCAGAAGCGUUCACGUCGCGGCCCCUGUCAGAUUCUCGUGAAUCUGCGAAUUCUGCUGU [C9A G47C], 1. As for GGGGGCCUCAGCAGAAGCGUUCACGUCGCGGCCCCUCUCAGAUUCUGGUGAAUCUGCGAAUUCUGCUGU [A8U G37C], the figure is 0.169; as for GGGGGCCAAAGCAGAAGCGUUCACGUAGCGGCCCCUGUCAGAUUCUGGUGAAUCUGCGAAUUCUGCUGU [C9A C27A], 0.798; as for GGGGGCCAAAGCAGAAGCGUUCACGUCGCGGCCCCUGUCAGAUUCUGGUGAAUCUGCGUAUUCUGCUGU [C9A A59U], 0.897. For GGGGGCCUCAGCAGAAGCGUUCACGUCGCGGCCCCUGUCAGAUUCUGGUGAAUCUGCAAAUUCUGCUGU [A8U G58A], the self-cleavage came to 0.995. As for GGGGGCCUCAGCAGAAGCGUUCACGUCGCUGCCCCUGUCAGAUUCUGGUGAAUCUGCGAAUUCUGCUGU [A8U G30U], the figure is 0.519; as for GGGGGCCAAAGCAGAAGCGUUCACCUCGCGGCCCCUGUCAGAUUCUGGUGAAUCUGCGAAUUCUGCUGU [C9A G25C], 0.228.

Regarding GGGGGCCUCAGCAGAAGCGUUCACGUCGCGGCCCCUGUCAGAGUCUGGUGAAUCUGCGAAUUCUGCUGU [A8U U43G], the self-cleavage amounted to 0.913. As for GGGGGCCUCAGCAGAAACGUUCACGUCGCGGCCCCUGUCAGAUUCUGGUGAAUCUGCGAAUUCUGCUGU [A8U G17A], the self-cleavage was 0.388. As for GGGGGCCUCAGCAGAAGCGUUCACGUCGCGGCCCCUGUCAGAUUCUGGUGAAUCUCCGAAUUCUGCUGU [A8U G56C], the figure is 0.761; as for GGGGGCCAAAGCAGAAGCGUUCAAGUCGCGGCCCCUGUCAGAUUCUGGUGAAUCUGCGAAUUCUGCUGU [C9A C24A], 0.891; as for GGGGGCCAAAGCAGAAGCGUUCAUGUCGCGGCCCCUGUCAGAUUCUGGUGAAUCUGCGAAUUCUGCUGU [C9A C24U], 0.934.

The values above are taken from the RNAGym collection of RNA variant scans (doi:10.7554/elife.80360).
